Experimental data as given in patent US20220281965A1 (AstraZeneca / MedImmune, published 2022).

Tests used:
[1] = target: T1, mature human GDF-15 (human, UniProt Q99988 197-308); assay: HTRF epitope competition; competitor DyLight 650 labelled Antibody A; Europium labelled human GDF-15
T1 construct: Homodimer; also called hGDF-15; recombinant hu-GDF15
T1 sequence: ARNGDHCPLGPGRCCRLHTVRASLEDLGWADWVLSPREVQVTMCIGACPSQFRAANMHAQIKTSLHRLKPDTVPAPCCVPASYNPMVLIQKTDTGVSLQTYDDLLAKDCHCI
Description: Antibodies from the immunizations with human GDF-15, in the form of crude supernatants from the immunization or in the form of purified IgGs, were chosen on the basis that they bind and compete with an epitope recognized by a control anti-GDF-15 antibody “Antibody A”. A biochemical epitope competition format was applied using an HTRF epitope competition assay that measured the binding of DyLight 650 labelled Antibody A to Europium labelled human GDF-15 (Prospec). In the absence of Antibody A binding, there is no detectable FRET fluorescence. When Antibody A binds to GDF-15, the resulting physical proximity between the secondary reagent donor/acceptor pair results in FRET. Competition with an antibody that recognizes the same or similar epitope will result in a dose dependent reduction of the FRET signal. FRET was measured ratiometrically [665 nm (acceptor)/620 nm (donor)] on an Envision plate reader, and IC₅₀ values were determined by curve fitting the data to a four parameter logistic equation using PRISM 6® software (Graphpad).

[2] = target: T2, human BMP7 (R&D Systems 354-BP/CF) (human, UniProt P18075 293-431); assay: antigen presentation ELISA: human BMP7 adsorbed on a Nunc Maxisorp plate, titration of IgG, anti-human IgG-HRP, TMB, absorbance at 450 nm
T2 construct: Bought protein, adsorbed on the ELISA plate
T2 sequence (looked up): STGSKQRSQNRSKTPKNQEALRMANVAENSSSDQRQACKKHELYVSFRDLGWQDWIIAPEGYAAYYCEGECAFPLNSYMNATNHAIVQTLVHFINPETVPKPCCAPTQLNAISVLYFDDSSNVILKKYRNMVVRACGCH
Method: (§1) Purified humanized IgGs were screened for binding to human GDF-15 over two further members of the same family, TGFβ1 (R&D Systems 240-B) and BMP7 (R&D Systems 354-BP/CF), using a standard antigen presentation ELISA. Human GDF-15, human TGFβ1 or human BMP7 were adsorbed onto a Nunc Maxisorp™ plate. After removal of excess unbound antigen, a titration of test IgG was added to the plate. After a 1-hour incubation, the unbound IgG was removed. The extent of IgG binding was determined by addition of an anti-human IgG antibody conjugated to the horseradish peroxidase (HRP) enzyme and measuring the optical absorbance at 450 nm of the product of its reaction with the substrate TMB.

[3] = target: T3, human TGFβ1 (R&D Systems 240-B) (human, UniProt P01137 279-390); assay: antigen presentation ELISA: human TGFβ1 adsorbed on a Nunc Maxisorp plate, titration of IgG, anti-human IgG-HRP, TMB, absorbance at 450 nm
T3 construct: Bought protein, adsorbed on the ELISA plate
T3 sequence (P01137 279-390 limits assumed): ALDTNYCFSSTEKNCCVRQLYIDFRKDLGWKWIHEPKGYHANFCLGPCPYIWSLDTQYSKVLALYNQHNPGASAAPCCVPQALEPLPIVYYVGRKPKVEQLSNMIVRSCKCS
Method: as §1

[4] = target: T4, mouse GDF-15 (mouse, UniProt Q9Z0J7 189-303); assay: HTRF binding assay, biotinylated mouse GDF-15
T4 construct: also called mGDF-15
T4 sequence: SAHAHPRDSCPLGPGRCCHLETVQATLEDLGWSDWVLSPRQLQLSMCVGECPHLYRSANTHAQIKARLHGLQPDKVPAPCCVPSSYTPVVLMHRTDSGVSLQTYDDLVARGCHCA
Description: (§2) Supernatants generated from the immunizations with human GDF-15 and purified IgGs were screened to identify IgGs with specific binding to human, cynomolgus, or mouse GDF-15. The HTRF (Homogeneous Time Resolved Fluorescence) assay is based on detection of a measurable FRET signal upon binding of a titration of test antibody to biotinylated human H202D GDF-15 variant, cynomolgus GDF-15 and mouse GDF-15. Europium cryptate (EuK) labelled Streptavidin and anti-human IgG XL665 (Cis Bio) were used as secondary detection reagents serving as energy donor and acceptor respectively. In the absence of test antibody binding, there is no detectable FRET fluorescence. When test antibody binds to GDF-15, the resulting physical proximity between the secondary reagent donor/acceptor pair results in FRET. FRET was measured ratiometrically [665 nm (acceptor)/620 nm (donor)] on an Envision plate reader, and data plotted using PRISM 6® software (Graphpad).

[5] = target: T5, biotinylated human H202D GDF-15 variant (human, UniProt Q99988 197-308, biotinylated, sites not stated); assay: HTRF binding assay, biotinylated antigen, titration of antibody
T5 construct: also called Human GDF-15 H202D
T5 chain: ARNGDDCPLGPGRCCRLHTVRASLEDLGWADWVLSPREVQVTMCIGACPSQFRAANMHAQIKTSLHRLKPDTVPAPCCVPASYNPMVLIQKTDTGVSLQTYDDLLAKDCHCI
Description: as §2

[6] = target: T6, biotinylated cynomolgus GDF-15 (cynomolgus, UniProt G7PWZ3 197-308, biotinylated, sites not stated); assay: as above
T6 construct: also called Cyno GDF-15
T6 sequence: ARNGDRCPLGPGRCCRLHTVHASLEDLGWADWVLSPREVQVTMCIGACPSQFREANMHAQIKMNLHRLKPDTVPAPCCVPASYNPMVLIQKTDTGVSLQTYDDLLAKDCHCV
Description: as §2

B1: AB1170244 (antibody, IgG1, V domains shown)
VH: EVQLVESGGGLVKPGGSLRLSCAASGFTFSSYAMSWVRQAPGKGLEWVAYISSGGDNIYYADTVKGRFTISRDNSKNTLYLQMNSLKTEDTAVYYCTRALVENAYFDYWGQGTTVTVSS
VL: DSVLTQSPDSLAVSLGERATINCRASKSVSTSTYSYMHWYQQKPGQPPKLLIKYASYLESGVPDRFSGSGSGTDFTLKISRVEAEDVGVYYCQHSREFPWTFGGGTKVEIK
notes: Humanized IgG1 TM; not shown: human immunoglobulin kappa light chain constant domain
IC50 [1]: 1.17 nM
binding result [2]: no binding (tested: 5 µg/mL)
binding result [3]: no binding (tested: 5 µg/mL)

B2: AB1170245 (antibody, IgG1, V domains shown)
VH: EVQLVESGGGLVKPGGSLRLSCAASGFTFSSYAMSWVRQAPGKGLEWVAYISSGGDYIYYADTVKGRFTISRDNSKNTLYLQMNSLKTEDTAVYYCTRALVDNAYFDYWGQGTTVTVSS
VL: DIVLTQSPDSLAVSLGERATINCRASKSVSTSSYSYMHWYQQKPGQPPKLLIKYASYLEFGVPSRFSGSGSGTDFTLTISSLQPEDVATYYCQHSREFPWTFGGGTKVEIK
notes: as for B1
IC50 [1]: 2.23 nM
binding result [2]: no binding (tested: 5 µg/mL)
binding result [3]: no binding (tested: 5 µg/mL)

B3: AB1170002 (antibody, V domains shown)
VH: QVTLKESGPGILQPSQTLSLTCSFSGFSLSTYGMGVGWIRQPSGKGLEWLANIWWNDDKYYNSALKSRLTISKDTSNNQVFLKISSVDTADTVTYYCAQVGYDWFAYWGQGTLVTVSS
VL: EIVLTQSPALMAASPGEKVTITCSVSSSISSSNLHWYQQKSETSPKPWIYGTSNLASGVPVRFSGSGSGTSYSLTISSMEAEDAATYYCQQCSSYPLTFGAGTKLELK
binding result [4]: no binding
binding result [5]: binds
binding result [6]: binds
IC50 [1]: 6.1 nM

B4: AB1170241 (antibody, IgG1, V domains shown)
VH: QVQLVQSGSELKKPGASVKVSCKASGYTFTDYNMDWIRQSPGKGLEWIGDINPNQGGTFYNQKFKDRATLTVDKSTSTAYMELRSLRSDDTAVYYCAREEKLYFGLMDYWGQGTTVTVSS
VL: DIQMTQSPSSLSASVGDRVTITCRASENIYSYLAWYQQKPGKAPKLLVYNAKTLAEGVPSRFSGSGSGIDFTLTISSLQPEDFATYYCQHQYGSPPTFGQGTKLEIK
notes: Humanized IgG1 TM; Made from AB1170243 by changing NNG to NQG in heavy chain CDR2; not shown: human immunoglobulin kappa light chain constant domain
IC50 [1]: 0.212 nM
binding result [2]: no binding (tested: 5 µg/mL)
binding result [3]: no binding (tested: 5 µg/mL)

B5: AB1170248 (antibody, IgG1, V domains shown)
VH: QVQLVQSGSELKKPGASVKVSCKASGYTFTDYNMDWVRQAPGKGLEWIGDINPYNGITIYNQKFKGRATLTVDKSTSTAYMELRSLRSDDTAVYYCAREEKLGTSFDYWGQGTTVTVSS
VL: DIQMTQSPSSLSASVGDRVTITCRASENIYSNLAWYQQKPGKAPKLLVYAATNLADGVPSRFSGSGSGTDFTLTISSLQPEDFATYYCQHFYGTPWTFGQGTKLEIK
notes: as for B1
IC50 [1]: 1.58 nM
binding result [2]: no binding (tested: 5 µg/mL)
binding result [3]: no binding (tested: 5 µg/mL)

B6: AB1170243 (antibody, IgG1, V domains shown)
VH: QVQLVQSGSELKKPGASVKVSCKASGYTFTDYNMDWIRQSPGKGLEWIGDINPNNGGTFYNQKFKDRATLTVDKSTSTAYMELRSLRSDDTAVYYCAREEKLYFGLMDYWGQGTTVTVSS
VL: DIQMTQSPSSLSASVGDRVTITCRASENIYSYLAWYQQKPGKAPKLLVYNAKTLAEGVPSRFSGSGSGIDFTLTISSLQPEDFATYYCQHQYGSPPTFGQGTKLEIK
notes: Humanized IgG1 TM; also called human anti-human GDF-15 IgG; not shown: human immunoglobulin kappa light chain constant domain
IC50 [1]: 0.155 nM
binding result [2]: no binding (tested: 5 µg/mL)
binding result [3]: no binding (tested: 5 µg/mL)

B7: AB1170242 (antibody, IgG1, V domains shown)
VH: QVQLQESGPGLLKPSQTLSLTCTVSGFSLSTYGMGVGWIRQPAGKGLEWLANIWWNDDKYYNSALKSRLTISKDTSKNQVSLKLSSVTAADTAVYYCAQEVYGWFAYWGQGTLVTVSS
VL: DIQMTQSPSTLSASVGDRVTITCKASQNVGTNVAWYQQKPGQPPKALIYSASYRYSGVPDRFSGSGSGTDFTLTISSLQAEDVAVYYCQQYNSYPLTFGQGTKLEIK
notes: as for B1
IC50 [1]: 0.288 nM
binding result [2]: no binding (tested: 5 µg/mL)
binding result [3]: no binding (tested: 5 µg/mL)

B8: AB1170249 (antibody, IgG1, V domains shown)
VH: QVQLQESGPGLLKPSQTLSLTCTVSGFSLSTYGMGVGWIRQPLGKGLEWLANIWWNDDKYYNSALKSRLTISKDTSKNQVSLKLSSVTAADTAVYYCAQMAYSWFAYWGQGTLVTVSS
VL: DIQMTQSPSFLSASVGDRVTITCKASQNMDTNVAWYQQKPGQPPKALIYSASYRYSGVPDRFSGSGSGTDFTLTISSLQAEDVAVYYCQQYNSYPFTFGQGTKLEIK
notes: as for B1
IC50 [1]: 0.406 nM
binding result [2]: no binding (tested: 5 µg/mL)
binding result [3]: no binding (tested: 5 µg/mL)

B9: AB1170246 (antibody, IgG1, V domains shown)
VH: QVQLQESGPGLLKPSQTLSLTCTVSGFSLITSGLGVSWIRQPAGKGLEWLAHIYWDDDKRYNPSLKSRLTISKDTSKNQVSLKLSSVTAADTAVYYCARGGYDGYYDYWGQGTTVTVSS
VL: DVVMTQSPLSLPVTLGQPASISCRSSQSIVHSNGNTNLEWYLQKPGQSPQLLIYKVSNRLSGVPDRFSGSGSGTDFTLKISRVEAEDVGVYYCFQGSHVRTFGQGTKLEIK
notes: as for B1
IC50 [1]: 4.99 nM
binding result [2]: no binding (tested: 5 µg/mL)
binding result [3]: no binding (tested: 5 µg/mL)

B10: AB1170247 (antibody, IgG1, V domains shown)
VH: QVQLVQSGSELKKPGASVKVSCKASGYTFTSYDINWVRQAPGQGLEWIGWIYPRDGISKYNEKFKGRATLTVDTSASTAYMELSSLRSEDTAVYYCAGTYDPAYFDYWGQGTTVTVSS
VL: EIVLTQSPATLSVSPGERATLSCRASQSISYYLHWYQQKPGQAPRLLIKYASQSISGVPDRFSGSGSGTDFTLKISRVEAEDFGVYYCQQSNSWPYTFGGGTKVEIK
notes: as for B1
IC50 [1]: 11.3 nM
binding result [2]: no binding (tested: 5 µg/mL)
binding result [3]: no binding (tested: 5 µg/mL)
